Drawing on publication PMC11969024 (2025), this text covers enrichment for 112 variants.

The labels stand for the following.
B1: peptide HD2 (from tick evasin EVA4) / CCL18 (biotinylated, synthetic) (parent complex)
chain 1: EEDDYTAYAPLTCYFT
chain 2: AQVGTNKELCCLVYTSWQIPQKFIVDYSETSPQCPKPGVILLTKRGRQICADPNKKWVQKYISDLKLNA

Variants of B1 are the subject of this test.
For chain 1 EEDDYTAYAPLTCYFH, the enrichment was -0.148 log2 (difference from the parental peptide).
For the variant chain 1 EEDDYTAYAPLTCYFA, the enrichment is 1.23 log2 (difference from the parental peptide).
Take chain 1 EEDDYTAYAPLTCYFL: the enrichment is 0.179 log2 (difference from the parental peptide).
Take chain 1 EEDDYTAYAPLTCYFR: the enrichment is -1.37 log2 (difference from the parental peptide).
Consider chain 1 EEDDYTAYAPLTCYFQ, for which the enrichment is 1.05 log2 (difference from the parental peptide).
Consider chain 1 EEDDYTAYAPLTCYFK, for which the enrichment is -0.439 log2 (difference from the parental peptide).
The result for chain 1 EEDDYTAYAPLTCYFN reads 0.14 log2 (difference from the parental peptide); that for chain 1 EEDDYTAYAPLTCYFG, 1.32 log2 (difference from the parental peptide).
As to chain 1 EEDDRTAYAPLTCYFT, the enrichment was -6.25 log2 (difference from the parental peptide).
Turning to chain 1 EEDDITAYAPLTCYFT, the enrichment is -3.26 log2 (difference from the parental peptide).
As for chain 1 EEDDLTAYAPLTCYFT, the enrichment is -0.851 log2 (difference from the parental peptide).
The same measure for chain 1 EEDDDTAYAPLTCYFT: -3.92 log2 (difference from the parental peptide); for chain 1 EEDDVTAYAPLTCYFT: -3.13 log2 (difference from the parental peptide).
On to chain 1 EEDDATAYAPLTCYFT, for which the enrichment was -4.1 log2 (difference from the parental peptide).
As for chain 1 EEDDMTAYAPLTCYFT, the enrichment was -0.412 log2 (difference from the parental peptide).
In the case of chain 1 EEDDNTAYAPLTCYFT, the enrichment was -4 log2 (difference from the parental peptide).
On to chain 1 EEDDQTAYAPLTCYFT, for which the enrichment was -2.39 log2 (difference from the parental peptide).
With chain 1 EEDKYTAYAPLTCYFT, the enrichment is -2.75 log2 (difference from the parental peptide).
Consider chain 1 EEDIYTAYAPLTCYFT, for which the enrichment was -2.18 log2 (difference from the parental peptide).
The result for chain 1 EEDQYTAYAPLTCYFT reads -1.98 log2 (difference from the parental peptide); that for chain 1 EEDGYTAYAPLTCYFT, -2.83 log2 (difference from the parental peptide).
In the case of chain 1 EEDPYTAYAPLTCYFT, the enrichment is -1.34 log2 (difference from the parental peptide).
The result for chain 1 EEDVYTAYAPLTCYFT reads -3.19 log2 (difference from the parental peptide); that for chain 1 EEDRYTAYAPLTCYFT, -2.64 log2 (difference from the parental peptide).
chain 1 EEDSYTAYAPLTCYFT: the enrichment is -2.31 log2 (difference from the parental peptide).
Regarding chain 1 EEDDYTAYAPLFCYFT, the enrichment was -0.316 log2 (difference from the parental peptide).
As for chain 1 EEDDYTAYAPLLCYFT, the enrichment was 0.858 log2 (difference from the parental peptide).
Regarding chain 1 EEDDYTAYAPLYCYFT, the enrichment is 0.868 log2 (difference from the parental peptide).
The same measure for chain 1 EEDDYTAYAPLECYFT: -0.867 log2 (difference from the parental peptide).
With chain 1 EEDDYTAYAPLCCYFT, the enrichment is -7.25 log2 (difference from the parental peptide).
The same measure for chain 1 EEDDYTAYAPLSCYFT: -1.43 log2 (difference from the parental peptide); for chain 1 EEDDYTAYAPLACYFT: -0.729 log2 (difference from the parental peptide).
Consider chain 1 EEDDYTAYAPLRCYFT, for which the enrichment was -2.9 log2 (difference from the parental peptide).
chain 1 EEDDYTAYAPLTCYPT: the enrichment is -0.512 log2 (difference from the parental peptide).
Regarding chain 1 EEDDYTAYAPLTCYLT, the enrichment was 0.128 log2 (difference from the parental peptide).
As for chain 1 EEDDYTAYAPLTCYCT, the enrichment is -5.58 log2 (difference from the parental peptide).
chain 1 EEDDYTAYAPLTCYQT: the enrichment is -0.376 log2 (difference from the parental peptide).
On to chain 1 EEDDYTAPAPLTCYFT, for which the enrichment was -3.81 log2 (difference from the parental peptide).
In the case of chain 1 EEDDYTAHAPLTCYFT, the enrichment was -6.18 log2 (difference from the parental peptide).
Turning to chain 1 EEDDYTAVAPLTCYFT, the enrichment was -2.87 log2 (difference from the parental peptide).
With chain 1 EEDDYTAQAPLTCYFT, the enrichment was -6.56 log2 (difference from the parental peptide).
The result for chain 1 EEDDYTAGAPLTCYFT reads -6.32 log2 (difference from the parental peptide); that for chain 1 EEDDYTASAPLTCYFT, -2.05 log2 (difference from the parental peptide).
As to chain 1 EEDDYTADAPLTCYFT, the enrichment was -6.74 log2 (difference from the parental peptide).
As for chain 1 EEDDYTAFAPLTCYFT, the enrichment was 2.01 log2 (difference from the parental peptide).
For chain 1 EEDDYTAYAPLTCSFT, the enrichment was -3.46 log2 (difference from the parental peptide).
On to chain 1 EEDDYTAYAPLTCEFT, for which the enrichment was -4.21 log2 (difference from the parental peptide).
In the case of chain 1 EEDDYTAYAPLTCMFT, the enrichment is -2.78 log2 (difference from the parental peptide).
As for chain 1 EEDDYTAYAPLTCKFT, the enrichment is -6.36 log2 (difference from the parental peptide).
The result for chain 1 EEDDYTAYAPLTCWFT reads -1.23 log2 (difference from the parental peptide); that for chain 1 EEDDYTAYAPLTCFFT, 0.0351 log2 (difference from the parental peptide).
Turning to chain 1 EEDDYTAYAPLTCVFT, the enrichment is -1.51 log2 (difference from the parental peptide).
As for chain 1 EEDDYTAYAPLTCCFT, the enrichment is -8.51 log2 (difference from the parental peptide).
With chain 1 EKDDYTAYAPLTCYFT, the enrichment is -3.34 log2 (difference from the parental peptide).
The result for chain 1 ESDDYTAYAPLTCYFT reads -2.49 log2 (difference from the parental peptide); that for chain 1 ENDDYTAYAPLTCYFT, -3.02 log2 (difference from the parental peptide).
The result for chain 1 ERDDYTAYAPLTCYFT reads -3.87 log2 (difference from the parental peptide); that for chain 1 EVDDYTAYAPLTCYFT, -1.58 log2 (difference from the parental peptide); that for chain 1 EDDDYTAYAPLTCYFT, -0.0115 log2 (difference from the parental peptide).
Consider chain 1 EEDDYTAYAPMTCYFT, for which the enrichment is 2.39 log2 (difference from the parental peptide).
As to chain 1 EEDDYTAYAPSTCYFT, the enrichment is -0.148 log2 (difference from the parental peptide).
chain 1 EEDDYTAYAPATCYFT: the enrichment is 0.458 log2 (difference from the parental peptide).
Consider chain 1 EEDDYTAYAPKTCYFT, for which the enrichment was -1.3 log2 (difference from the parental peptide).
As to chain 1 EEDDYTAYAPCTCYFT, the enrichment is 1.6 log2 (difference from the parental peptide).
Turning to chain 1 EEDDYTAYAPRTCYFT, the enrichment is -0.679 log2 (difference from the parental peptide).
The result for chain 1 EEDDYTAYAPNTCYFT reads -3.89 log2 (difference from the parental peptide).
On to chain 1 EEDDYTMYAPLTCYFT, for which the enrichment is 2.23 log2 (difference from the parental peptide).
For the variant chain 1 EEDDYTLYAPLTCYFT, the enrichment is 0.189 log2 (difference from the parental peptide).
With chain 1 EEDDYTDYAPLTCYFT, the enrichment is 1.19 log2 (difference from the parental peptide).
Regarding chain 1 EEDDYTTYAPLTCYFT, the enrichment was -0.452 log2 (difference from the parental peptide).
On to chain 1 EEDDYTIYAPLTCYFT, for which the enrichment is -0.489 log2 (difference from the parental peptide).
As to chain 1 EEDDYTYYAPLTCYFT, the enrichment was -0.717 log2 (difference from the parental peptide).
On to chain 1 EEDDYTQYAPLTCYFT, for which the enrichment was 2.05 log2 (difference from the parental peptide).
With chain 1 EEDDYFAYAPLTCYFT, the enrichment was -2.21 log2 (difference from the parental peptide).
Take chain 1 EEDDYRAYAPLTCYFT: the enrichment is 0.592 log2 (difference from the parental peptide).
Turning to chain 1 EEDDYSAYAPLTCYFT, the enrichment was 2.9 log2 (difference from the parental peptide).
As to chain 1 EEDDYIAYAPLTCYFT, the enrichment was -4.4 log2 (difference from the parental peptide).
chain 1 EEDDYWAYAPLTCYFT: the enrichment was 0.931 log2 (difference from the parental peptide).
Take chain 1 EEDDYAAYAPLTCYFT: the enrichment was 1.9 log2 (difference from the parental peptide).
In the case of chain 1 EEDDYTAYAGLTCYFT, the enrichment is -8.83 log2 (difference from the parental peptide).
The same measure for chain 1 EEDDYTAYAVLTCYFT: -8.99 log2 (difference from the parental peptide); for chain 1 EEDDYTAYADLTCYFT: -2.21 log2 (difference from the parental peptide).
For chain 1 EEDDYTAYAFLTCYFT, the enrichment was -9.61 log2 (difference from the parental peptide).
In the case of chain 1 EEDDYTAYANLTCYFT, the enrichment was -8.22 log2 (difference from the parental peptide).
Take chain 1 EEDDYTAYALLTCYFT: the enrichment was -9.7 log2 (difference from the parental peptide).
The same measure for chain 1 EEDDYTAYAPLTTYFT: -9.42 log2 (difference from the parental peptide).
For the variant chain 1 EEDDYTAYAPLTIYFT, the enrichment was -5.57 log2 (difference from the parental peptide).
On to chain 1 EEDDYTAYAPLTQYFT, for which the enrichment was -9.57 log2 (difference from the parental peptide).
On to chain 1 EEDDYTAYAPLTRYFT, for which the enrichment was -9.16 log2 (difference from the parental peptide).
The result for chain 1 EEDDYTAYAPLTNYFT reads -8.4 log2 (difference from the parental peptide); that for chain 1 MEDDYTAYAPLTCYFT, -0.0267 log2 (difference from the parental peptide); that for chain 1 YEDDYTAYAPLTCYFT, -1.67 log2 (difference from the parental peptide).
In the case of chain 1 KEDDYTAYAPLTCYFT, the enrichment is -3.68 log2 (difference from the parental peptide).
The result for chain 1 NEDDYTAYAPLTCYFT reads -0.496 log2 (difference from the parental peptide); that for chain 1 LEDDYTAYAPLTCYFT, -1.91 log2 (difference from the parental peptide); that for chain 1 PEDDYTAYAPLTCYFT, -2.16 log2 (difference from the parental peptide).
With chain 1 REDDYTAYAPLTCYFT, the enrichment was -3.04 log2 (difference from the parental peptide).
Take chain 1 IEDDYTAYAPLTCYFT: the enrichment is -1.17 log2 (difference from the parental peptide).
The same measure for chain 1 EEDDYTAYMPLTCYFT: -4.18 log2 (difference from the parental peptide).
Regarding chain 1 EEDDYTAYNPLTCYFT, the enrichment was -5.05 log2 (difference from the parental peptide).
Regarding chain 1 EEDDYTAYCPLTCYFT, the enrichment was -10.3 log2 (difference from the parental peptide).
In the case of chain 1 EEDDYTAYIPLTCYFT, the enrichment is -10.2 log2 (difference from the parental peptide).
The same measure for chain 1 EEDDYTAYKPLTCYFT: -2.18 log2 (difference from the parental peptide); for chain 1 EEDDYTAYLPLTCYFT: -7.81 log2 (difference from the parental peptide); for chain 1 EEDDYTAYQPLTCYFT: -0.732 log2 (difference from the parental peptide).
Regarding chain 1 EEDDYTAYFPLTCYFT, the enrichment is -8.36 log2 (difference from the parental peptide).
For chain 1 EEIDYTAYAPLTCYFT, the enrichment is -2.12 log2 (difference from the parental peptide).
For the variant chain 1 EELDYTAYAPLTCYFT, the enrichment was -2.02 log2 (difference from the parental peptide).
In the case of chain 1 EERDYTAYAPLTCYFT, the enrichment was -3.26 log2 (difference from the parental peptide).
For the variant chain 1 EEEDYTAYAPLTCYFT, the enrichment is 0.978 log2 (difference from the parental peptide).
For the variant chain 1 EEGDYTAYAPLTCYFT, the enrichment was -0.0296 log2 (difference from the parental peptide).
On to chain 1 EEADYTAYAPLTCYFT, for which the enrichment was -0.703 log2 (difference from the parental peptide).
